In US20210032299A1 (Eli Lilly, published 2021):
Starred links: 1 amine or outer side, 2 acyl side, 3 side chain; linkers in the order of their positions; H or OH if unused. Non-standard residues stand in square brackets, D forms with d. Groups on a side chain read outwards from the residue. No end group written: not given here. *: point of attachment. C20 diacid = O=C(O)CCCCCCCCCCCCCCCCCCC(=O)*; C18 diacid = O=C(O)CCCCCCCCCCCCCCCCC(=O)*; αMePhe(2-F) = C[C@](N)(Cc1ccccc1F)C(=O)O; γGlu = O=C(O)[C@H](CCC(=O)[*:2])N[*:1]; αMeF = C[C@](N)(Cc1ccccc1)C(=O)O; 4Pal = N[C@@H](Cc1ccncc1)C(=O)O; AEEA = NCCOCCOCC(=O)O; Aib = CC(C)(N)C(=O)O

B1: Example 11 (peptide)
peptide: Y[dA]EGTFISDYSILLDKK([AEEA-AEEA-γGlu-C20 diacid])AQQDFVNWLLAQGPSSGAPPPS-NH2
modifications: N-terminus assumed
SMILES: CC[C@H](C)[C@H](NC(=O)[C@H](CO)NC(=O)[C@H](Cc1ccc(O)cc1)NC(=O)[C@H](CC(=O)O)NC(=O)[C@H](CO)NC(=O)[C@@H](NC(=O)[C@H](Cc1ccccc1)NC(=O)[C@@H](NC(=O)CNC(=O)[C@H](CCC(=O)O)NC(=O)[C@@H](C)NC(=O)[C@@H](N)Cc1ccc(O)cc1)[C@@H](C)O)[C@@H](C)CC)C(=O)N[C@@H](CC(C)C)C(=O)N[C@@H](CC(C)C)C(=O)N[C@@H](CC(=O)O)C(=O)N[C@@H](CCCCN)C(=O)N[C@@H](CCCCNC(=O)COCCOCCNC(=O)COCCOCCNC(=O)CC[C@H](NC(=O)CCCCCCCCCCCCCCCCCCC(=O)O)C(=O)O)C(=O)N[C@@H](C)C(=O)N[C@@H](CCC(N)=O)C(=O)N[C@@H](CCC(N)=O)C(=O)N[C@@H](CC(=O)O)C(=O)N[C@@H](Cc1ccccc1)C(=O)N[C@H](C(=O)N[C@@H](CC(N)=O)C(=O)N[C@@H](Cc1c[nH]c2ccccc12)C(=O)N[C@@H](CC(C)C)C(=O)N[C@@H](CC(C)C)C(=O)N[C@@H](C)C(=O)N[C@@H](CCC(N)=O)C(=O)NCC(=O)N1CCC[C@H]1C(=O)N[C@@H](CO)C(=O)N[C@@H](CO)C(=O)NCC(=O)N[C@@H](C)C(=O)N1CCC[C@H]1C(=O)N1CCC[C@H]1C(=O)N1CCC[C@H]1C(=O)N[C@@H](CO)C(N)=O)C(C)C
B2: Example 12 (peptide)
peptide: Y[dA]EGTFISDYSILLDKK([AEEA-AEEA-γGlu-C20 diacid])AQQDFVNWLLAGGPSSGAPPPS-NH2
modifications: N-terminus assumed
SMILES: CC[C@H](C)[C@H](NC(=O)[C@H](CO)NC(=O)[C@H](Cc1ccc(O)cc1)NC(=O)[C@H](CC(=O)O)NC(=O)[C@H](CO)NC(=O)[C@@H](NC(=O)[C@H](Cc1ccccc1)NC(=O)[C@@H](NC(=O)CNC(=O)[C@H](CCC(=O)O)NC(=O)[C@@H](C)NC(=O)[C@@H](N)Cc1ccc(O)cc1)[C@@H](C)O)[C@@H](C)CC)C(=O)N[C@@H](CC(C)C)C(=O)N[C@@H](CC(C)C)C(=O)N[C@@H](CC(=O)O)C(=O)N[C@@H](CCCCN)C(=O)N[C@@H](CCCCNC(=O)COCCOCCNC(=O)COCCOCCNC(=O)CC[C@H](NC(=O)CCCCCCCCCCCCCCCCCCC(=O)O)C(=O)O)C(=O)N[C@@H](C)C(=O)N[C@@H](CCC(N)=O)C(=O)N[C@@H](CCC(N)=O)C(=O)N[C@@H](CC(=O)O)C(=O)N[C@@H](Cc1ccccc1)C(=O)N[C@H](C(=O)N[C@@H](CC(N)=O)C(=O)N[C@@H](Cc1c[nH]c2ccccc12)C(=O)N[C@@H](CC(C)C)C(=O)N[C@@H](CC(C)C)C(=O)N[C@@H](C)C(=O)NCC(=O)NCC(=O)N1CCC[C@H]1C(=O)N[C@@H](CO)C(=O)N[C@@H](CO)C(=O)NCC(=O)N[C@@H](C)C(=O)N1CCC[C@H]1C(=O)N1CCC[C@H]1C(=O)N1CCC[C@H]1C(=O)N[C@@H](CO)C(N)=O)C(C)C
B3: Example 18 (peptide)
peptide: YXEGTFISDYSILLDKKAQXDFVNXLLAQGPSSGAPPPS
modifications: D-Ala2; K17((2-[2-(2-Amino-ethoxy)-ethoxy]-acetyl)2-(γ-Glu)-CO-(CH2)16-CO2H); Aib20; 4-Pal25; C-terminal amide
B4: Example 39 (peptide)
peptide: Y[Aib]EGT[αMePhe(2-F)]ISDYSIALDKK([AEEA-AEEA-γGlu-C20 diacid])HQ[Aib]DFVE[4Pal]LLEGGPSSGAPPPS-NH2
modifications: N-terminus assumed
SMILES: CC[C@H](C)[C@H](NC(=O)[C@H](CO)NC(=O)[C@H](Cc1ccc(O)cc1)NC(=O)[C@H](CC(=O)O)NC(=O)[C@H](CO)NC(=O)[C@@H](NC(=O)[C@](C)(Cc1ccccc1F)NC(=O)[C@@H](NC(=O)CNC(=O)[C@H](CCC(=O)O)NC(=O)C(C)(C)NC(=O)[C@@H](N)Cc1ccc(O)cc1)[C@@H](C)O)[C@@H](C)CC)C(=O)N[C@@H](C)C(=O)N[C@@H](CC(C)C)C(=O)N[C@@H](CC(=O)O)C(=O)N[C@@H](CCCCN)C(=O)N[C@@H](CCCCNC(=O)COCCOCCNC(=O)COCCOCCNC(=O)CC[C@H](NC(=O)CCCCCCCCCCCCCCCCCCC(=O)O)C(=O)O)C(=O)N[C@@H](Cc1c[nH]cn1)C(=O)N[C@@H](CCC(N)=O)C(=O)NC(C)(C)C(=O)N[C@@H](CC(=O)O)C(=O)N[C@@H](Cc1ccccc1)C(=O)N[C@H](C(=O)N[C@@H](CCC(=O)O)C(=O)N[C@@H](Cc1ccncc1)C(=O)N[C@@H](CC(C)C)C(=O)N[C@@H](CC(C)C)C(=O)N[C@@H](CCC(=O)O)C(=O)NCC(=O)NCC(=O)N1CCC[C@H]1C(=O)N[C@@H](CO)C(=O)N[C@@H](CO)C(=O)NCC(=O)N[C@@H](C)C(=O)N1CCC[C@H]1C(=O)N1CCC[C@H]1C(=O)N1CCC[C@H]1C(=O)N[C@@H](CO)C(N)=O)C(C)C
B5: Example 38 (peptide)
peptide: Y[Aib]EGT[αMePhe(2-F)]ISDYSIALDKK([AEEA-AEEA-γGlu-C20 diacid])HQ[Aib]DFVE[4Pal]LLETGPSSGAPPPS-NH2
modifications: N-terminus assumed
SMILES: CC[C@H](C)[C@H](NC(=O)[C@H](CO)NC(=O)[C@H](Cc1ccc(O)cc1)NC(=O)[C@H](CC(=O)O)NC(=O)[C@H](CO)NC(=O)[C@@H](NC(=O)[C@](C)(Cc1ccccc1F)NC(=O)[C@@H](NC(=O)CNC(=O)[C@H](CCC(=O)O)NC(=O)C(C)(C)NC(=O)[C@@H](N)Cc1ccc(O)cc1)[C@@H](C)O)[C@@H](C)CC)C(=O)N[C@@H](C)C(=O)N[C@@H](CC(C)C)C(=O)N[C@@H](CC(=O)O)C(=O)N[C@@H](CCCCN)C(=O)N[C@@H](CCCCNC(=O)COCCOCCNC(=O)COCCOCCNC(=O)CC[C@H](NC(=O)CCCCCCCCCCCCCCCCCCC(=O)O)C(=O)O)C(=O)N[C@@H](Cc1c[nH]cn1)C(=O)N[C@@H](CCC(N)=O)C(=O)NC(C)(C)C(=O)N[C@@H](CC(=O)O)C(=O)N[C@@H](Cc1ccccc1)C(=O)N[C@H](C(=O)N[C@@H](CCC(=O)O)C(=O)N[C@@H](Cc1ccncc1)C(=O)N[C@@H](CC(C)C)C(=O)N[C@@H](CC(C)C)C(=O)N[C@@H](CCC(=O)O)C(=O)N[C@H](C(=O)NCC(=O)N1CCC[C@H]1C(=O)N[C@@H](CO)C(=O)N[C@@H](CO)C(=O)NCC(=O)N[C@@H](C)C(=O)N1CCC[C@H]1C(=O)N1CCC[C@H]1C(=O)N1CCC[C@H]1C(=O)N[C@@H](CO)C(N)=O)[C@@H](C)O)C(C)C
B6: Example 23 (peptide)
peptide: Y[Aib]EGT[αMeF]ISDYSIALDKK([AEEA-AEEA-γGlu-C18 diacid])HQ[Aib]DFVE[4Pal]LLAGGPSSGAPPPS-NH2
modifications: N-terminus assumed
SMILES: CC[C@H](C)[C@H](NC(=O)[C@H](CO)NC(=O)[C@H](Cc1ccc(O)cc1)NC(=O)[C@H](CC(=O)O)NC(=O)[C@H](CO)NC(=O)[C@@H](NC(=O)[C@](C)(Cc1ccccc1)NC(=O)[C@@H](NC(=O)CNC(=O)[C@H](CCC(=O)O)NC(=O)C(C)(C)NC(=O)[C@@H](N)Cc1ccc(O)cc1)[C@@H](C)O)[C@@H](C)CC)C(=O)N[C@@H](C)C(=O)N[C@@H](CC(C)C)C(=O)N[C@@H](CC(=O)O)C(=O)N[C@@H](CCCCN)C(=O)N[C@@H](CCCCNC(=O)COCCOCCNC(=O)COCCOCCNC(=O)CC[C@H](NC(=O)CCCCCCCCCCCCCCCCC(=O)O)C(=O)O)C(=O)N[C@@H](Cc1c[nH]cn1)C(=O)N[C@@H](CCC(N)=O)C(=O)NC(C)(C)C(=O)N[C@@H](CC(=O)O)C(=O)N[C@@H](Cc1ccccc1)C(=O)N[C@H](C(=O)N[C@@H](CCC(=O)O)C(=O)N[C@@H](Cc1ccncc1)C(=O)N[C@@H](CC(C)C)C(=O)N[C@@H](CC(C)C)C(=O)N[C@@H](C)C(=O)NCC(=O)NCC(=O)N1CCC[C@H]1C(=O)N[C@@H](CO)C(=O)N[C@@H](CO)C(=O)NCC(=O)N[C@@H](C)C(=O)N1CCC[C@H]1C(=O)N1CCC[C@H]1C(=O)N1CCC[C@H]1C(=O)N[C@@H](CO)C(N)=O)C(C)C

Experiments:
[1] = biological target: T1, human GLP-1 receptor (human, UniProt P43220 24-463); experiment: SPA, displacement of [125I]-GLP-1 from hGLP-1R membranes, 0.1% bacitracin
T1 construct: whole, on cells; Assayed as crude membranes of stably transfected HEK293 cells; also called hGLP1R; hGLP-1R
In short: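 Binding buffer: 25 mM HEPES pH 7.4, 2.5 mM CaCl₂, 1 mM MgCl₂, 0.1% bacitracin, 0.003% Tween-20, protease inhibitors without EDTA. Four-parameter nonlinear regression; Kᵢ given as geometric mean ± SEM, n = independent replicates run on different days.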

[2] = biological target: T2, human glucagon receptor (human, UniProt P47871 26-477); experiment: SPA, displacement of [125I]-Gcg from hGcgR membranes, 0.1% bacitracin
T2 construct: whole, on cells; Assayed as crude membranes of stably transfected HEK293 cells; also called hGcgR; GcgR
In short: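 Binding buffer: 25 mM HEPES pH 7.4, 2.5 mM CaCl₂, 1 mM MgCl₂, 0.003% Tween-20, protease inhibitors without EDTA. Counted by scintillation after 12 h incubation/settling at room temperature. Four-parameter nonlinear fit; Kᵢ given as geometric mean ± SEM of independent replicates run on different days.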

[3] = biological target: T3, human glucose-dependent insulinotropic polypeptide (GIP) receptor (human, UniProt P48546 22-466); experiment: SPA, displacement of [125I]-GIP from hGIPR membranes, 0.1% bacitracin
T3 construct: whole, on cells; Assayed as crude membranes of stably transfected CHO cells; also called hGIPR; human GIP receptor
T3 sequence (looked up): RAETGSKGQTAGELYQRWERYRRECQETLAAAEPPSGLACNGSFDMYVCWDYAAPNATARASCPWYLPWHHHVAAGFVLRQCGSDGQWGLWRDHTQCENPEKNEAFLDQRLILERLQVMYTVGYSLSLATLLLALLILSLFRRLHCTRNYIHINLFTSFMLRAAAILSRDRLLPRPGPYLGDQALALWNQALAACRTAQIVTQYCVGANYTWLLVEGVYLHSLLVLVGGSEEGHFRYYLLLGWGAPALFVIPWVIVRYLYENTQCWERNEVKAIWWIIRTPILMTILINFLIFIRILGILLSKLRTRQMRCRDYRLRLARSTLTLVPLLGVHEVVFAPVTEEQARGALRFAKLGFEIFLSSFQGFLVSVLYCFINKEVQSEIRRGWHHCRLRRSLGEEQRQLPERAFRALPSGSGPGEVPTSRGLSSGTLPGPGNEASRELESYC

T2 sequence (P47871 26-477): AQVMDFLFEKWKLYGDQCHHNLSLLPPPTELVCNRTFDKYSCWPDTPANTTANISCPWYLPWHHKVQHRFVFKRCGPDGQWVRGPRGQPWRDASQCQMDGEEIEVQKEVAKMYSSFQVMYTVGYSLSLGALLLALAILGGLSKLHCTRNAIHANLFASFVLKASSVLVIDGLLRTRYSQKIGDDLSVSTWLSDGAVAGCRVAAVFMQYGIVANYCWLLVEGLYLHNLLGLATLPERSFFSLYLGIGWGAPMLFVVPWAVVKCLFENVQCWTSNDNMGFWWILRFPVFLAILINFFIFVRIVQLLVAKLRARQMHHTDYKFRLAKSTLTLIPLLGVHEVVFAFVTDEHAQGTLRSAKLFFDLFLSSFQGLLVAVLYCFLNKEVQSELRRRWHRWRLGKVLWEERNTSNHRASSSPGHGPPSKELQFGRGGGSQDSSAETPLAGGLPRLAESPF

Binder	Ki [1] [nM]	Ki [2] [nM]	Ki [3] [nM]
B1	85.9	163	0.0584
B2	46.8	134	0.0876
B3	158	463	0.0331
B4	235	76	0.0444
B5	776	182	0.0588
B6	251	323	0.0341
